± gives the standard deviation of the averaged measurements.
Columns and labels:
Saccharomyces cerevisiae [1] = experiment: protein stability index of tFT-peptide fusion (C-terminal peptide) (PSI (0-1 scale)); higher = more stable (slower turnover); conditions: genetic background: wild type; temperature: 30 C
Saccharomyces cerevisiae [2] = experiment: as above
Description: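 MPS profiling in S. cerevisiae of the tFT-X12 degron library: putative degron peptides plus stable controls, 12 aa, fused to the C-terminus of a sfGFP-mCherry timer. Cells are FACS-sorted into 8 mCherry/sfGFP bins and deep-sequenced. PSI runs from 0 (unstable) to 1 (stable). Backgrounds are wild type, das1Δ and doa10Δ at 30 °C, and wild type, das1Δ, cdc34-1 and cdc53-1 at 37 °C; 2-3 technical replicates each.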

[3] = genetic background: cdc34-1, temperature: 37 C
[4] = genetic background: cdc53-1, temperature: 37 C
[5] = genetic background: das1 deletion, temperature: 30 C
[6] = genetic background: das1 deletion, temperature: 37 C
[7] = genetic background: doa10 deletion, temperature: 30 C
[8] = genetic background: wild type, temperature: 30 C
[9] = genetic background: wild type, temperature: 37 C
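Note: PSI is a weighted mean of sequencing reads over stability bins, variants kept only with over 10 reads, mCherry proximal and sfGFP distal, peptide attached via GGGS linker.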

| Sequence | protein stability index (Saccharomyces cerevisiae [1]) | protein stability index (Saccharomyces cerevisiae [2]; [3]) | protein stability index (Saccharomyces cerevisiae [2]; [4]) | protein stability index (Saccharomyces cerevisiae [2]; [5]) | protein stability index (Saccharomyces cerevisiae [2]; [6]) | protein stability index (Saccharomyces cerevisiae [2]; [7]) | protein stability index (Saccharomyces cerevisiae [2]; [8]) | protein stability index (Saccharomyces cerevisiae [2]; [9]) |
| --- | --- | --- | --- | --- | --- | --- | --- | --- |
| ACGGGSNVHRAG | 0.747 ± 0.012 | 0.665 ± 0.028 | 0.7248 ± 0.0067 | 0.657 ± 0.019 | 0.767 ± 0.021 | 0.662 ± 0.045 | 0.66 ± 0.018 | 0.75211 ± 0.00044 |
| ACVRLVLCVCRV | 0.339 ± 0.0039 | 0.281 ± 0.011 | 0.341 ± 0.042 | 0.237 ± 0.04 | 0.4091 ± 0.0036 | 0.211 ± 0.015 | 0.225 ± 0.028 | 0.375 ± 0.02 |
| ACVWVVALVWVF | 0.213 ± 0.016 | 0.121 ± 0.005 | 0.249 ± 0.041 | 0.174 ± 0.035 | 0.303 ± 0.015 | 0.132 ± 0.0086 | 0.153 ± 0.01 | 0.243 ± 0.009 |
| AEVLCEIVIALR | 0.523 ± 0.043 | 0.582 ± 0.011 | 0.675 ± 0.063 | 0.485 ± 0.04 | 0.583 ± 0.0085 | 0.45 ± 0.019 | 0.48 ± 0.038 | 0.543 ± 0.018 |
| AFFFCVVVLFSF | 0.182 ± 0.044 | 0.194 ± 0.0078 | 0.233 ± 0.013 | 0.171 ± 0.027 | 0.289 ± 0.015 | 0.178 ± 0.018 | 0.176 ± 0.041 | 0.256 ± 0.054 |
| AFFRCKCYVGTP | 0.511 ± 0.057 | 0.568 ± 0.011 | 0.584 ± 0.046 | 0.502 ± 0.017 | 0.598 ± 0.013 | 0.512 ± 0.013 | 0.495 ± 0.0099 | 0.561 ± 0.025 |
| AFTFLLCWLFGV | 0.467 ± 0.054 | 0.622 ± 0.024 | 0.671 ± 0.01 | 0.552 ± 0.018 | 0.627 ± 0.0065 | 0.453 ± 0.0068 | 0.454 ± 0.016 | 0.585 ± 0.041 |
| AFVALCACVIFV | 0.302 ± 0.025 | 0.175 ± 0.015 | 0.249 ± 0.026 | 0.215 ± 0.039 | 0.362 ± 0.005 | 0.178 ± 0.016 | 0.202 ± 0.026 | 0.302 ± 0.0078 |
| AGGVNWWSSWRV | 0.7454 ± 0.006 | 0.739 ± 0.049 | 0.767 ± 0.0082 | 0.648 ± 0.015 | 0.775 ± 0.011 | 0.6591 ± 0.0032 | 0.669 ± 0.014 | 0.78 ± 0.037 |
| AGMLMCLYLFFV | 0.468 ± 0.027 | 0.562 ± 0.05 | 0.661 ± 0.047 | 0.467 ± 0.032 | 0.598 ± 0.022 | 0.428 ± 0.0066 | 0.449 ± 0.028 | 0.5673 ± 0.0029 |
| AIMFLVLGYVFF | 0.378 ± 0.034 | 0.262 ± 0.085 | 0.395 ± 0.018 | 0.269 ± 0.03 | 0.462 ± 0.019 | 0.255 ± 0.036 | 0.276 ± 0.027 | 0.452 ± 0.019 |
| ALCPPLPMLVVA | 0.2097 ± 0.00085 | 0.02987 ± 0.00016 | 0.03 ± 0.0043 | 0.156 ± 0.019 | 0.0912 ± 0.0067 | 0.109 ± 0.01 | 0.137 ± 0.03 | 0.0758 ± 0.0021 |
| ALLMVCFGFSLV | 0.422 ± 0.01 | 0.445 ± 0.022 | 0.5162 ± 0.0013 | 0.372 ± 0.032 | 0.527 ± 0.0098 | 0.335 ± 0.009 | 0.367 ± 0.02 | 0.508 ± 0.0078 |
| ALNFFSLFMLFR | 0.398 ± 0.048 | 0.221 ± 0.058 | 0.168 ± 0.07 | 0.325 ± 0.041 | 0.422 ± 0.022 | 0.603 ± 0.0092 | 0.325 ± 0.034 | 0.358 ± 0.022 |
| ALSRFFSVFLLV | 0.3814 ± 0.00064 | 0.592 ± 0.013 | 0.671 ± 0.009 | 0.55 ± 0.019 | 0.6766 ± 0.0044 | 0.26 ± 0.012 | 0.266 ± 0.03 | 0.454 ± 0.032 |
| ASVCLNVIYQLV | 0.268 ± 0.036 | 0.515 ± 0.024 | 0.451 ± 0.0053 | 0.288 ± 0.027 | 0.471 ± 0.013 | 0.1572 ± 0.0011 | 0.164 ± 0.018 | 0.222 ± 0.024 |
| AVLFAPPLSSNF | 0.729 ± 0.052 | 0.712 ± 0.03 | 0.78169 ± 0.00024 | 0.64 ± 0.014 | 0.7729 ± 0.0067 | 0.657 ± 0.026 | 0.6489 ± 0.0039 | 0.739 ± 0.0078 |
| AVSFVTLSIMVM | 0.195 ± 0.032 | 0.0451 ± 0.007 | 0.0958 ± 0.092 | 0.153 ± 0.016 | 0.163 ± 0.0065 | 0.135 ± 0.005 | 0.157 ± 0.018 | 0.1217 ± 0.0011 |

— the supplement of paper PMC10724198
